# Source: PMC5936033
# Test system: GST-VP1 (Chicken anaemia virus (strain CAU269/7?))
# Assay: EMSA (agarose)
# Settings: 50 mM Tris-HCl pH 7.5, 120 mM KCl, 1.0 mM EDTA, 0.5 mM DTT, 30 mg/ml BSA (so in the source); 100 ng DNA in 20 ul, 37 C, 30 min (Results: 1 h); 0.8% agarose/TAE. Text …
row,Substance,percent unbound DNA (% unbound DNA)
1,CAV genome minus-strand linear ssDNA,53.3
2,M13mp18 ssDNA,46.5
3,linear pcDNA3.1 (EcoRI),84.7
4,"pCAV, open circular (form I)",59.6
5,"pCAV, supercoiled (form II)",82.6
